This note sets out measurements from article PMC4176358.

For the data set, the target named is T1, VqsMt (truncated VqsM) (Pseudomonas aeruginosa PAO1) (UniProt Q9I1P2).
T1 sequence: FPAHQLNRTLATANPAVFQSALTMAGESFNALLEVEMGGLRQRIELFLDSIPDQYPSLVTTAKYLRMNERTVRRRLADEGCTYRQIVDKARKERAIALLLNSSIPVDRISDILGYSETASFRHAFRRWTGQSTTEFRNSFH
Nature of the data set: EMSA. The conditions noted are these: 20 mM Tris-HCl pH 7.4, 50 mM KCl, 5 mM MgCl2, 10% glycerol, 3 ug/ml sheared salmon sperm DNA; room temperature 20 min; DNA 40-50 nM (footprint DNase I at 25 C). Background: A gel shift assay detects complexes by their altered migration in electrophoresis.
Regarding “AAAAGGCGGCATCCCTACCCTGATACTCCTGGGCCCTCTCAGTCGGAGGACATACCAGCACACACATGAGGGGGAAGACTAAAGGAGGATGAACGGCAGGCAACCTGCCAGATCTGGTAGGGCGCGCCGACCGGCGCGCCCTGCGCTTCAGATGAGACCCAGCGCCGCGGCGTAGGCGGCAGCCAGCGTCTTGTTCGGCGCGTCGAACTTCTTCTGGATGTTC (double strand) [rhlI promoter]”, the binding entry was “no binding”.

As for “AAAAAGCCTCCGTCATTCCTCATTGCAGTAAGCCCTGATCGATAAAATGCATCACAGCAGAATTGGCCCGGGGTATGACGCTGTCAAGCGCGCAGCCTTGCCGATACGGCAAAATCATGGCAACCCTATCTGTTATGCCAGCACCGTTCAGGACGCAGCCTTCAGCCATCGAGCATCCCCCTCCCTATGACAACGTTCGACCACCTGGGCCGCTTTACCGCAAGCGATACTGTGCGGTTGTGACAATTCCATGAAACGC (double strand) [rhlR promoter]”, the binding entry was “no binding”.

For “TAAAGATGGACGCTGGTTTGCGCAGCCCATGCACTGTCCGCCGCTGTCGCACCGATCGTCGTCAGGATCGATAACGCCAGTGCACAAACTTTTTTCATTGGATTTCCTTTCCGAAACGAAACAAGTTGGATTTTGCACCTACCAGAACTGGTAGTTCTGACCTGTGGCTATCTTCGAAGGCATCGATATTATGCACATTGGAACTCTTCATGACATAACGCCGAGTGACT (double strand) [vqsR promoter]”, the binding result was “no binding”.
